System: fluorescein thiocarbamoyl-labeled (FTC) casein

Sequence of GST-TMPRSS2 protease domain (AA 255-492) (chain, as listed by the source): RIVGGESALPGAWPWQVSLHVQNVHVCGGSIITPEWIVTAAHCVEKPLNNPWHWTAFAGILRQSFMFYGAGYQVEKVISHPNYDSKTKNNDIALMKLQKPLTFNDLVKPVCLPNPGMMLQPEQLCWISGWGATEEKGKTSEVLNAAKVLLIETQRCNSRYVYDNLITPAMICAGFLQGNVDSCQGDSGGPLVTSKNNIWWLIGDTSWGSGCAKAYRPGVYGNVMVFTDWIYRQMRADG

GST-TMPRSS2 protease domain (AA 255-492)
protease activity, fluorescence of FTC-casein (EnzChek protease assay): purified recombinant GST-20P1F12/TMPRSS2 can cleave a universal substrate, namely casein in a dose dependent manner

From US7037667
